This is an account of results in US20170305997A1 (Janssen / Centocor, published 2017).

As usually defined, the Kd is the constant that tells how readily two partners part at equilibrium. A word on the koff: it is the first-order rate constant of dissociation. As a reminder, the kon is the second-order rate constant of association. One may read the EC50 as the concentration that produces a half-maximal response.

Test [1] has as its target Recombinant human c-Met Fc chimera (human) (UniProt P08581). The test can be described thus: SPR, serine scan in the ECB15 context. Background: Surface plasmon resonance follows binding to a sensor surface in real time, without labels.
The target of test [2] is T1, human c-Met on cells (human, UniProt P08581 25-1390). The test can be described thus: cell-based or functional assay.
For test [3], the target named is T1, human c-Met on cells. The test can be described thus: binding to NCI-H441 cells, anti-His fluorescence. As to the method: Purified FN3 domains (50 μL/well; 0 to 1000 nM) were added to the cells for 1 hour at 4° C. in duplicate plates. […] Cells were incubated with biotinylated-anti HIS antibody (diluted 1:160 in FACS stain buffer, 50 μL/well, R&D Systems, cat # BAM050) for 30 minutes at 4° C. […] Cells were washed three times with FACS stain buffer (150 μL/well) and left in FACS stain buffer (50 μL/well).

In test [4] the target is T1, human c-Met on cells. The test is described as follows: cell-based or functional assay. This is another data set of the same source.
The target of test [5] is T1, human c-Met on cells. The test is described as follows: cell-based or functional assay. The source holds these as a separate data set.

Substitutions are numbered along the chain they refer to. Names and notes keep the numbering of the source.

B1: ECB15 (designed binder, not shown: small tags and cut ends)
chain: MLPAPKNLVVSEVTEDSARLSWDDPWAFYESFLIQYQESEKVGEAIVLTVPGSERSYDLTGLKPGTEYTVSIYGVHNVYKDTNMRGLPLSAIFTTAPAPAPAPAPLPAPKNLVVSRVTEDSARLSWTAPDAAFDSFWIRYFEFLGSGEAIVLTVPGSERSYDLTGLKPGTEYVVNIMGVKGGKISPPLSAIFTT
For the molecule B1, in test [1], the Fold Change of KD against the parent was 1 fold, the Kd was 0.4 nM, the koff amounted to 0.000133 s⁻¹ and the kon was 351000 M⁻¹ s⁻¹.

B2: P114AR7P95-D3 (designed binder)
chain: LPAPKNLVVSRVTEDSARLSWTAPDAAFDSFWIRYFEFLGSGEAIVLTVPGSERSYDLTGLKPGTEYVVNIMGVKGGSISYPLSAIFTTHHHHHH
In the case of B2, in the test with human c-Met on cells [2], the “Inhibition of Proliferation of U87-MG cells (IC50)” value (“Inhibition … of U87-MG cells (IC50)” below) was 1.7 nM and the “pMet inhibition in H441 cells (IC50)” value worked out at 4.6 nM.

B3: P114AR7P95-B9 (designed binder)
chain: B2 chain with N70Q, M72L, Y81V
Turning to B3, in the test with human c-Met on cells [2], the “Inhibition … of U87-MG cells (IC50)” value turned out to be 17.4 nM and the “pMet inhibition in H441 cells (IC50)” value came to 9.8 nM.

B4: P114AR5P75-E9 (designed binder)
chain: B2 chain with W32F, F36D, G40R, V68W, N70T, M72L, S78L, I79V, Y81T
In the case of B4, in the test with human c-Met on cells [2], the “Inhibition … of U87-MG cells (IC50)” value came out at 1190 nM and the “pMet inhibition in H441 cells (IC50)” value worked out at 1.42 µM.

B5: P114AR7P94-A3 (designed binder)
chain: B2 chain with S78K, Y81P
notes: also called P114AR7P95-A3; P114ARP94-A3
B5: in the test with human c-Met on cells [2], the “Inhibition … of U87-MG cells (IC50)” value came out at 9.3 nM and the “pMet inhibition in H441 cells (IC50)” value turned out to be 5 nM. This molecule yielded an EC50 in the test with human c-Met on cells [3] of 1.4 nM.

B6: P114AR7P95-F10 (designed binder)
chain: B2 chain with L39T, G40T, S41A, Y81P
Turning to B6, in the test with human c-Met on cells [2], the “Inhibition … of U87-MG cells (IC50)” value was 130 nM and the “pMet inhibition in H441 cells (IC50)” value amounted to 188 nM. Besides, the response with human c-Met on cells [3] was half-maximal at 4.4 nM (EC50).

B7: P114AR7P94-E5 (designed binder)
chain: B2 chain with V68A, S78R, I79V, Y81V
On to B7, for which, in the test with human c-Met on cells [2], the “Inhibition … of U87-MG cells (IC50)” value came to 196 nM and the “pMet inhibition in H441 cells (IC50)” value turned out to be 124 nM. The same molecule came in with an EC50 with human c-Met on cells [3] of 3.4 nM.

B8: P114AR7P95-G7 (designed binder)
chain: B2 chain with F38L, G40S, S41T, Y81P
With B8, in the test with human c-Met on cells [2], the “Inhibition … of U87-MG cells (IC50)” value amounted to 692 nM and the “pMet inhibition in H441 cells (IC50)” value was 659 nM. The molecule also displayed an EC50 in the test with human c-Met on cells [3] of 11.3 nM.

B9: P114AR7P95-H8 (designed binder)
chain: B2 chain with L39V, G40S, S41K, Y81P
On to B9, for which, in the test with human c-Met on cells [2], the “Inhibition … of U87-MG cells (IC50)” value amounted to 281 nM and the “pMet inhibition in H441 cells (IC50)” value came out at 210 nM. The molecule further yielded an EC50 with human c-Met on cells [3] of 4.1 nM.

B10: P114AR7P93-H9 (designed binder)
chain: B2 chain with N70Q, M72I, S78H, Y81L
As to B10, in the test with human c-Met on cells [2], the “Inhibition … of U87-MG cells (IC50)” value is 270 nM and the “pMet inhibition in H441 cells (IC50)” value came to 288 nM. The EC50 in the test with human c-Met on cells [3] is 12.9 nM.

B11: P114AR7P95-D4 (designed binder)
chain: B2 chain with N70Q, M72L, S78Y, Y81I
As for B11, in the test with human c-Met on cells [2], the “Inhibition … of U87-MG cells (IC50)” value worked out at 19.4 nM and the “pMet inhibition in H441 cells (IC50)” value came to 19.5 nM. In addition, a half-maximal response in the test with human c-Met on cells [3] (EC50) required 1.4 nM.

B12: P114AR7P92-G8 (designed binder)
chain: B2 chain with W32V, N70Q, M72L, S78Y, Y81I
As to B12, in the test with human c-Met on cells [2], the “Inhibition … of U87-MG cells (IC50)” value came to 124 nM and the “pMet inhibition in H441 cells (IC50)” value stood at 155 nM. Further, in the test with human c-Met on cells [3], the EC50 came out at 5.9 nM.

B13: P114AR5P74-A5 (designed binder)
chain: B2 chain with F36D, F38V, L39V, G40V, S41G, V68Y, M72L, Y81V
Consider B13, for which, in the test with human c-Met on cells [2], the “Inhibition … of U87-MG cells (IC50)” value was 464 nM and the “pMet inhibition in H441 cells (IC50)” value amounted to 1.08 µM. Besides, the “IC50 (nM) (ERK phosphorylation)” value with human c-Met on cells [4] is 2370 nM. The “inhibition of c-Met phosphorylation in NCI-H292 cells (IC50)” value with human c-Met on cells [5] was found to be 610 nM. The molecule further came in with an EC50 in the test with human c-Met on cells [3] of 18.7 nM.

B14: P114AR7P92-F3 (designed binder)
chain: B2 chain with V68I, Y81H
As for B14, in the test with human c-Met on cells [2], the “Inhibition … of U87-MG cells (IC50)” value came out at 2.7 nM and the “pMet inhibition in H441 cells (IC50)” value is 8.3 nM.

B15: P114AR7P95-E3 (designed binder)
chain: B2 chain with N70Q, S78T, I79V, Y81P
B15: in the test with human c-Met on cells [2], the “Inhibition … of U87-MG cells (IC50)” value came to 209 nM and the “pMet inhibition in H441 cells (IC50)” value came to 205 nM. The same molecule came in with an EC50 with human c-Met on cells [3] of 3.2 nM.

B16: P114AR7P92-F6 (designed binder)
chain: B2 chain with M72L, S78G, I79L, Y81V
For the molecule B16, in the test with human c-Met on cells [2], the “Inhibition … of U87-MG cells (IC50)” value was determined as 350 nM and the “pMet inhibition in H441 cells (IC50)” value is 165 nM. Further, the midpoint of the response with human c-Met on cells [3], the EC50, lay at 4.9 nM.

B17: P114AR7P93-D11 (designed binder)
chain: B2 chain with N70G, M72N, S78Y
Take B17: in the test with human c-Met on cells [2], the “Inhibition … of U87-MG cells (IC50)” value turned out to be 14.4 nM and the “pMet inhibition in H441 cells (IC50)” value is 16 nM. For the same molecule, the EC50 with human c-Met on cells [3] stood at 2.3 nM.

B18: P114AR7P92-H5 (designed binder)
chain: B2 chain with F36L, G40L, S41G, N70Q, S78T, I79V, Y81P
With B18, in the test with human c-Met on cells [2], the “Inhibition … of U87-MG cells (IC50)” value came to 672 nM and the “pMet inhibition in H441 cells (IC50)” value is 766 nM. This molecule also had an EC50 with human c-Met on cells [3] of 22 nM.

B19: P114AR7P93-G8 (designed binder)
chain: B2 chain with G60D, V68G, N70T, M72N, S78R, I79V, Y81T
Regarding B19, in the test with human c-Met on cells [2], the “Inhibition … of U87-MG cells (IC50)” value came to 104 nM and the “pMet inhibition in H441 cells (IC50)” value came out at 460 nM. For the same molecule, the response with human c-Met on cells [3] was half-maximal at 3.8 nM (EC50).

B20: A3 K78S (designed binder)
chain: LPAPKNLVVSEVTEDSARLSWDDPWAFYESFLIQYQESEKVGEAIVLTVPGSERSYDLTGLKPGTEYTVSIYGVHNVYKDTNMRGLPLSAIFTTAPAPAPAPAPLPAPKNLVVSRVTEDSARLSWTAPDAAFDSFWIRYFEFLGSGEAIVLTVPGSERSYDLTGLKPGTEYVVNIMGVKGGSISPPLSAIFTT
Take B20: the Fold Change of KD against the parent in test [1] came out at 0.75 fold.

B21: A3 G40S (designed binder)
chain: B20 chain with G144S, S182K
As for B21, the Fold Change of KD against the parent in test [1] was 4.25 fold.

B22: A3 L39S (designed binder)
chain: B20 chain with L143S, S182K
For the molecule B22, the Fold Change of KD against the parent in test [1] is 6.75 fold.

B23: A3 W32S (designed binder)
chain: B20 chain with W136S, S182K
For the molecule B23, the Fold Change of KD against the parent in test [1] came out at 74.5 fold.

B24: A3 N70S (designed binder)
chain: B20 chain with N174S, S182K
As for B24, the Fold Change of KD against the parent in test [1] worked out at 14.8 fold.

B25: A3 F38S (designed binder)
chain: B20 chain with F142S, S182K
As to B25, the Fold Change of KD against the parent in test [1] came out at 1790 fold.

B26: A3 P81S (designed binder)
chain: B20 chain with S182K, P185S
As for B26, in test [1], the Fold Change of KD against the parent was determined as 4.25 fold.

B27: A3 F36S (designed binder)
chain: B20 chain with F140S, S182K
Regarding B27, the Fold Change of KD against the parent in test [1] was found to be 68 fold.

B28: A3 V68S (designed binder)
chain: B20 chain with V172S, S182K
B28: the Fold Change of KD against the parent in test [1] is 9 fold.
